In assay [1] the target is Truncated ApoE3, residues 80-255 (central helical repeat segment) (human) (UniProt P02649). The assay can be described thus: SAXS.
For assay [2] the target is unchanged. The assay can be described thus: cross-linking.

“And” between values parts separate entries of the source, which are not always exact repeats. Equal entries are not always repeated.

Take “Truncated ApoE3, residues 80-255 (central helical repeat segment) (from UniProt P02649 80-255) (domain or fragment)”: the stoichiometry N – broadly, a count of units in the complex or per binding partner – was 4 in assay [1]; 2 and 3 in assay [2].

These data come from paper doi:10.1101/2020.09.30.319905.
